Laboratory results as given in patent US11498974 (BIOARCTIC, dated 2022).
Blank lines part the entries; values can stand above or below the molecule they belong to.

How the values were obtained:
Aβ protofibrils = Aβ protofibrils (UniProt P05067); assay: inhibition ELISA; reference: Aβ monomers
[1] = biological target: recombinant transferrin receptor protein (Sinobiological) (UniProt Q62351); assay: competition TfR ELISA; references: 8D3 and 8D3-F(ab′)2-h158
[2] = biological target: recombinant transferrin receptor protein (Sinobiological) (UniProt Q62351); assay: competition ELISA on coated recombinant TfR; competitor 2.5 nM biotinylated scFv8D3
[3] = biological target: recombinant transferrin receptor protein (Sinobiological) (UniProt Q62351); assay: TfR competition ELISA, FIG. 2D; reference: RmAb158-scFv8D3
[4] = biological target: recombinant transferrin receptor protein (Sinobiological) (UniProt Q62351); assay: competition TfR ELISA; reference: RmAb158-scFv8D3
[5] = biological target: T1, recombinant transferrin receptor protein (Sinobiological) (UniProt Q62351 89-763, limits assumed); assay: TfR competition ELISA, FIG. 2D; reference: RmAb158-scFv8D3
T1 construct: Construct limits are unknown; also called TfR; recombinant TfR protein
T1 sequence (Q62351 89-763 limits assumed): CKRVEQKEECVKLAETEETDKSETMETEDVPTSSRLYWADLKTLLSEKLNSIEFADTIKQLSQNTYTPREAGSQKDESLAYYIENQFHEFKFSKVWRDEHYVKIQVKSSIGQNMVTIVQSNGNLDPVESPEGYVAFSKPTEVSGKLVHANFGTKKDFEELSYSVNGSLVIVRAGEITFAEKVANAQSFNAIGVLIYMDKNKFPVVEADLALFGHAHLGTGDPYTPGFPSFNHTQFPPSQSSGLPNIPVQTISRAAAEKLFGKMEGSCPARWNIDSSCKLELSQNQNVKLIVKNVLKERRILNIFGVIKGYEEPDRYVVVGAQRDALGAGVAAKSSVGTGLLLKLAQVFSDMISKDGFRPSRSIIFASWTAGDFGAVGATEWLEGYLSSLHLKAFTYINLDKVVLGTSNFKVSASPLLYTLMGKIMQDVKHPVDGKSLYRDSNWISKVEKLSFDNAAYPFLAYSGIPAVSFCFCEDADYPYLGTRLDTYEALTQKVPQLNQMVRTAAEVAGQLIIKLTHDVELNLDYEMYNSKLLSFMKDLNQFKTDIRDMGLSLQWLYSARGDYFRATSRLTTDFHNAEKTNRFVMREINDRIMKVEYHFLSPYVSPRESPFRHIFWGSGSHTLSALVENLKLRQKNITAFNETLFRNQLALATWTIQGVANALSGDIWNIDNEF

[6] = biological target: T1, recombinant transferrin receptor …; assay: competition ELISA on coated recombinant TfR; competitor 2.5 nM biotinylated scFv8D3

Sequence of recombinant transferrin receptor protein (Sinobiological) (UniProt Q62351) (Q62351 89-763 limits assumed): as above

fold stronger binding to protofibrils than to monomers (Aβ protofibrils): 500 fold
fold lower avidity [1]: 10 fold
Kd [2]: 8 nM
Molecule: RmAb158-scFv8D3 (bispecific antibody)

fold stronger binding [3]: 10 fold
Kd [2]: 0.69 nM
Molecule: chemically conjugated fusion protein 8D3-F(ab′)2-h158 (bispecific antibody)

fold higher Kd [4]: 2 fold
Kd [2]: 15 nM
Molecule: scFv8D3

fold stronger binding [5]: ~10 fold
Kd [6]: 0.8 nM
B1: anti-TfR antibody 8D3 (antibody, V domains shown)
VH: EVQLVESGGGLVQPGNSLTLSCVASGFTFSNYGMHWIRQAPKKGLEWIAMIYYDSSKMNYADTVKGRFTISRDNSKNTLYLEMNSLRSEDTAMYYCAVPTSHYVVDVWGQGVSVTVSS
VL: DIQMTQSPASLSASLEEIVTITCQASQDIGNWLAWYQQKPGKSPQLLIYGATSLADGVPSRFSGSRSGTQFSLKISRVQVEDIGIYYCLQAYNTPWTFGGGTKLELK
